Data as given in the nanobody polyreactivity screen of Harvey et al. (2022).

Test: yeast display, Sf9 membrane polyspecificity reagent, FACS + sequencing; frameworks hold sequencing errors
How it was run: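 Sorting gates, low and high (top ~1%), were placed on anti-HA fluorescence to track expression and on streptavidin fluorescence to track reagent binding. A clone's polyreactivity label is taken from the gate it came out of. The reagent was 10% biotinylated, detergent-solubilized Sf9 membrane, applied for 1 hour at 4 °C to galactose-induced yeast display cells.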
For “QVQLVESGVGLVQAGGSLRLSCAASGITLYNYAMGWYRHAPGKERELVAAISLSGGRTYYADSVKGRFTISRDNAKNTVYLQMNSLKPEDTAVYYCAADWLNSDPYNYWGQGTQVTVSS”, the “polyreactivity (PSR sort gate)” value was “low polyreactivity”.
With “QVQLVESGVGLVQAGGSLRLSCAASGLIFGYYAMGRNRQAPGKERELVAAITRGGGRTYYADSVKGRFTISRDNAKNTVYLQMNSLKPEDTAVYYCNAVRRVSSAGEFDYWGQGTQVTVSS” the “polyreactivity (PSR sort gate)” value was “high polyreactivity”.
In the case of “QVQLVESGVGLVQAGGSLRLSCAASGLTFLYYAMAWLRQAPGKERELVAVISSGGRTYYADSVKGRFTISRDNAKNTVYLQMHSLKPEDTAVYYCAAYDPYYQSTFDYWGQGTQVTVSS”, the “polyreactivity (PSR sort gate)” value is reported as “high polyreactivity”.
With “QVQLVESGVGLVQAGGSLRLSCAASGNTISYNAMGWSRQAPGKERELVAAIRWSGGSTNYADSVKGRFTISRDNAKNTVYLQMNSLKPEDTAVYYCNARYASTNYGWISYYWGQGNQVTVSS” the “polyreactivity (PSR sort gate)” value was “high polyreactivity”.
In the case of “QVQLVESGVGLVQAGGSLRLSCAASGRIFAPYAMGWYRQAPGKERELVAAIRWRGGSTSYADSVKGRFTISRDNAKNTVYLQMNSLKPEDTAVYYCNADYGFSFYWYDYWGQGTQVTVSS”, the “polyreactivity (PSR sort gate)” value is reported as “low polyreactivity”.
For “QVQLVESGVGLVQAGGSLRLSCAASGRIFRGYAMGWYRQAPGKEREFVAAISWSGGDTYYADSVKGRFTISRDNAKNTVYLQMNSLKAEDTAVYYFATEYRLIPGPFVWPYDYWGQGTQVTVSS”, the “polyreactivity (PSR sort gate)” value was “high polyreactivity”.
With “QVQLVESGVGLVQAGGSLRLSCAASGRIFRRYVMGWYRQAPGKEREFVAAITSRGGRTYYADSVKGRFTISRDNAKNTVYLQMNSLKPEDTAVYYCAARYSRSMDYWGQGTQVTVSS” the “polyreactivity (PSR sort gate)” value was “high polyreactivity”.
For “QVQLVESGVGLVQAGGSLRLSCAASGRIFYPYAMGWYRQAPGKERELDAVINGSGGSTYYADSVKGRFTISRDYAKNTVYLQMNSLKPEDTAVYYCARVWSRRYGGWYRNYYWGQGTQVTVSS”, the “polyreactivity (PSR sort gate)” value was “high polyreactivity”.
With “QVQLVESGVGLVQAGGSLRLSCAASGRIFYTYAMGWYRQAPGKERELVAAISSRTGSTYYADSVKGRFTISRDNAKNTVYLQMNSLKPEDTAVYYCAAYLWKSKRKLDYWGQGTQVTVSS” the “polyreactivity (PSR sort gate)” value was “high polyreactivity”.
In the case of “QVQLVESGVGLVQAGGSLRLSCAASGRIFYYNAMGWYRQAPGKVRELVASISWDASSTYYADSVKGRFTISRDNAKNTVYLQMNSLKPEDTAVYYCNKKHLYRQYDYWGQGTQVTVTS”, the “polyreactivity (PSR sort gate)” value is reported as “low polyreactivity”.
With “QVQLVESGVGLVQAGGSLRLSCAASGSIFHIYAMGWYRQAPGKERELVAAMTYADSVKGRFTISRVNAKNTVYLQMNSLKPEDTAVYECNADNWPRIHGSAYDYWGQGTQVTVSS” the “polyreactivity (PSR sort gate)” value was “low polyreactivity”.
In the case of “QVQLVESGVGLVQAGGSLRLSCAASGSIFQKYTMGWYRQAPGKERQLVAAITRSGGSTYYADSVKGRFTISRDNAKNTVYLQMNSLKAEDSAVYYCNKRYIPWAYDYWGQGTQVTVSS”, the “polyreactivity (PSR sort gate)” value is reported as “high polyreactivity”.
With “QVQLVESGVGLVQAGGSLRLSCAASGSIFYHYVMGWYRQAPGKERELVAGISWSGVSTYYADSVKGRFTISRDNAKNTVYLQMNSLKPEDTADYYCAAVYRQSRLHTFGYWGQGTQVTVSS” the “polyreactivity (PSR sort gate)” value was “high polyreactivity”.
In the case of “QVQLVESGVGLVQAGGSLRLSCAASGSTFDFNAMGWYRPAPGKERELVAAITGSGGSTDYADSVKGRFTISRDNAKNTVYLQMNSLKPEDTAVYYCNAGKTIDYRDGVGYDHWGQGTQVTVSS”, the “polyreactivity (PSR sort gate)” value is reported as “low polyreactivity”.
For “QVQLVESGVGLVQAGGSLRLSCAASGSTFWSYTMGWYRQAPGKERELVARIRTTGGSTYADSVKGRFTISRDNAKNTVYLQMNSLKPEDTAVYYCAKEGWLRYYPWYGGDYWGQGTQVTVSS”, the “polyreactivity (PSR sort gate)” value was “high polyreactivity”.
With “QVQLVESGVGLVQAGGSLRLSCAASGYIFRLYAMGGYRQAPGKERELVATITASGGTYYADSVKGRFTISRDNAKNTVYLQMNSLKPEDTAVYYCAAAKLRRLSRVRYGYWGQGTQVTVSS” the “polyreactivity (PSR sort gate)” value was “high polyreactivity”.
In the case of “QVQLVESGVGLVQAGGSLRLSCAATGFTFDENAMGWYRQAPGINYSGASTYYAYSVKGRFTISRDNAKNTVYLQMNSLKPEDTAVYYCAAEVVAQMNYWGQGTQVTVSS”, the “polyreactivity (PSR sort gate)” value is reported as “low polyreactivity”.
For “QVQLVESGVGLVQAGGSLRLSCADSGFTFRRYVMGWYRQAPGKERELVAGISASGDSTYYADSVKGRFTISRDYAKNTFYLQMNSLKPEDTAVYYCATVARYRYLESYYWGQGTQVTVSS”, the “polyreactivity (PSR sort gate)” value was “high polyreactivity”.
In the case of “QVQLVESGVGLVQAGGSLRLSCADSGSIFVINAMGWYRQASGKERELVATIRARAGSTYYADSVKGRFTISRDNAKNTVYLQMNSLKPEDTAFYYCAARLKSYRVEYWGQGTQVTVSS”, the “polyreactivity (PSR sort gate)” value is reported as “high polyreactivity”.
In the case of “QVQLVESGVGLVQAGGSLRLSCASSGFIFNYNTMGWYRQAPGKETELVAAISSSGGSTYYADSVKGRFTISRDNAKNTVYLQMNSLKPEDTAVYYCGAGANAQRVPNGDYWGQGTQVTVSS”, the “polyreactivity (PSR sort gate)” value is reported as “low polyreactivity”.
With “QVQLVESGVGLVQAGGSLRLSCASSGFTFYYYAMGWYRQAPGKERELVAAIDTSDGSTYYADSVKGRFTISRDNAKNTVYLQMNSLKPEDTAVYYCAAEVDWVPFLLDYWGQGTQVTVSS” the “polyreactivity (PSR sort gate)” value was “low polyreactivity”.
For “QVQLVESGVGLVQAGGSLRLSCASSGRTFPTYAMGWYRQAPGKERELVAAIRISGGRTYYADSVKGRFTISRDNAKNTVDLQMNSLKPEDTAVYYCAADTYASYESWGQGTQVSVSS”, the “polyreactivity (PSR sort gate)” value was “high polyreactivity”.
In the case of “QVQLVESGVGLVQAGGSLRLSCASSGRTFYDYAMGWYRQAPGKERELVATISSRGDGTYYADSVKGRFTISRDYAKITVCLLMNSLKPEDTAVYYCAARYRRVHSGYGYWGQGTHVTVSS”, the “polyreactivity (PSR sort gate)” value is reported as “high polyreactivity”.
With “QVQLVESGVGLVQAGGSLRLSSAASGIIFVSNAMRWYRQAPGKERELVATINWSDDSTYYADSVKGRFTISRDNAKKTVSLQMNSLKADYTAVYYCYCGQGTQVTVSS” the “polyreactivity (PSR sort gate)” value was “low polyreactivity”.
In the case of “QVQLVESGVGLVQAGGSLSLSCAASGRIFPVYAMGWYRQAPGKERELVATISYSGSSTYYADSVKGRFTISRDNAKNNVYLLMNSLKPEDTAVYYCNADAFGPQCVQYYYWGQVTQVTVSS”, the “polyreactivity (PSR sort gate)” value is reported as “low polyreactivity”.
In the case of “QVQLVESGVGLVQAGGTLRLSCAASGFTFVRYAMAWYRQAPGKEREFVASISARGCNTFYADSVKGRFTISRDNAKNTVYLQMNSLKPEDTAVYYCAKRGPYGTGYGYWGQGTQVTVSS”, the “polyreactivity (PSR sort gate)” value is reported as “high polyreactivity”.
For “QVQLVESGVGLVQAGGTLRLSCAASGITFLQYAMGWYRQAPGKERELVAGITRSGGAGTYYADSVKGRFTISRDNAKNTVYLQMNSLKPEDTAVYYCAAETDTPSLYQDMYYWGQGTQVTVSS”, the “polyreactivity (PSR sort gate)” value was “high polyreactivity”.
In the case of “QVQLVESGVGLVQAGGTLRLSCAASGRIFTINAMGWYRQAPGKEREFVAAISGSGGTTYYADSVKGRLTISRDNAKNTVYLQMNSLKPEDTAVYYCAVSQSWYWYYASDYWGQGTQVTVSS”, the “polyreactivity (PSR sort gate)” value is reported as “low polyreactivity”.
With “QVQLVESGVGLVQARGSLRLSCAASGITFNYYAMGWYRQAPGKESELVATINRSGGTTYYADSVKGRFTISRDKAKNTDYLQMNSLKQEDTAVYDCNARYTSLGRYHSGYEYWGQGTQVTVSS” the “polyreactivity (PSR sort gate)” value was “high polyreactivity”.
For “QVQLVESGVGLVQARGSLRLSCAASGSIFRRNAMGWYRQAHGKERELVAAISASGGRTYADSVKGRFTISRDNSKNTVYFQMKSLNPEDKAVYYCAARCYCSSRFDYWGLGTQVTVSS”, the “polyreactivity (PSR sort gate)” value was “high polyreactivity”.
With “QVQLVESGVGLVQGGGSLRLTCPASGFTFDWYAMGWYRPAPGKERELVAAISSSGTSTYYADSVKGRFTISRDTAKNTVYLQMNSLKPEDTAVYYCAARWYYVTPLRRYCYWGQGTQVTVSS” the “polyreactivity (PSR sort gate)” value was “high polyreactivity”.
In the case of “QVQLVESGVGLVQSGGSLRLSCAASGRISAQYTMGWYRQAPGIERELFAAITWSGTNTYYADSVKGRFTISRDNAKNTVYLQFNSLKPEDTAVYYCATAVYLVIFEYDYWGQGTHVTVSS”, the “polyreactivity (PSR sort gate)” value is reported as “low polyreactivity”.
With “QVQLVESGVGVVQAGGSLRLSCAASGRTFLRYTMGGYRQAPGKEREFVAAISYDTSSTYYADSVKGRFTISRDNAKNTVYLQMNSLKPEDTAVYYCAATLSRVSLSYGYWGLGTQVTVSS” the “polyreactivity (PSR sort gate)” value was “low polyreactivity”.
For “QVQLVESGVRLVQAGGSHRLSCAANGFIFRRYAMGWYIQAPGKERELVAAITRSGGTTYYADSVKGRFTISRDNAKNTVYFQLNSLKPEDTAVYYCDARRPYTYDSGDILEMDHWGQGTQVTVSS”, the “polyreactivity (PSR sort gate)” value was “high polyreactivity”.
For “QVQLVESGVVLDQAGGILRLSCAASGFIFARYDMGWYRQAPGKERELVATISYTGGRTYYADSVKGRFTISRDNAKNTVYLQMNSLKPEDTAVYYCAAVVQSSEPVEYDYWGQGTQVTVSS”, the “polyreactivity (PSR sort gate)” value was “high polyreactivity”.
With “QVQLVESRGGIVQAGGSLRLSCAASGSIFEQYAMGLYRQAPGKERELVAAISKRGTSTNYADSVKGRVTISRDNAKNTVYLQMNSLKPEDTAVYYCNADSRHRRNYDYWGQGTHVTVSS” the “polyreactivity (PSR sort gate)” value was “high polyreactivity”.
For “QVQLVESRGGIVQAGGSLRLTCAASGRTFRSKVMGWYRQAQGKERELVADITYSGGNTYYADSVKGRFTISRDNAKNTDYLQMNSLKPEDNAVYYCATGWSWWTFDYWGQGTQVTVSS”, the “polyreactivity (PSR sort gate)” value was “high polyreactivity”.
With “QVQLVESRGGLDQAGGSLRLSCAASGSIFGFYAMGWYRQAPGKERELVAAISSDGGSTYYADSVKGRFTISRDNAKNTVYLQMNSLKPEDTAVYYCAAAHGSIFDSTYYEYYYWGQGTQVTVSS” the “polyreactivity (PSR sort gate)” value was “low polyreactivity”.
For “QVQLVESRGGLVHAGGSLGLSCAASGSTFGVNAMGWYRQAPGKERELVASISSGGGTYYADSVKGRFTISRDNSKNTVYLQMNSLKPEDTAVYYCAAVYYWYDSYAGYDYWGQGTQVTVSS”, the “polyreactivity (PSR sort gate)” value was “low polyreactivity”.
In the case of “QVQLVESRGGLVQAGCSLRLSSAASGLIFYFYTMGWYRQAPGKERELVDSIRSGDSTNYADSVKGRFTISRDNAKNTVYLQMNSLKPEDTAVYYCNARYRYPYYLSVAEKYDYWGQGTQVTVSS”, the “polyreactivity (PSR sort gate)” value is reported as “high polyreactivity”.
With “QVQLVESRGGLVQAGGRLRLSCAASGLIFYKYAMGWYRPAHGKERQLVAAITSGGGSTYYADSVKGRFTISRDNAKNTVYLQKNSLKPEDSAVYYCAATRPATYAAYDYWGHGTQVTVSS” the “polyreactivity (PSR sort gate)” value was “high polyreactivity”.
With “QVQLVESRGGLVQAGGSLLLSCAASGIIFRYYTMGWYRQAPGKERELVAAIERSGGNTYYADSVKGRFTISRDNAKNTVYLQMNSLKPEDTAVYYCAARYATWYFRRGRKTSDYDYWGQGTQVTVSS” the “polyreactivity (PSR sort gate)” value was “high polyreactivity”.
For “QVQLVESRGGLVQAGGSLRLRCAASGYIYYQYAMGWSRHAPGKETALVGAISLSGGMTYYADSVKGRFTISRDNAKNTVYLQMNSLKPEETGVYFCNAQSRVWCKVYYWGQGTQVTVSS”, the “polyreactivity (PSR sort gate)” value was “high polyreactivity”.
